B1: NAP-2: recombinant human neutrophil activating peptide-2 (Bachem Bioscience) (protein, UniProt P02775 59-128, looked up)
Neutrophil-activating peptide …: AELRCMCIKTTSGIHPKNIQSLEVIGKGTHCNQVEVIATLKDGRKICLDPDAPRIKKIVQKKLAGDESAD
modifications: Neutrophil-activating peptide 2
B2: C5a: C5a, ligand tested in the oocyte calcium efflux screen (protein, UniProt P01031 678-751, looked up)
C5a anaphylatoxin: TLQKKIEEIAAKYKHSVVKKCCYDGACVNNDETCEQRAARISLGPRCIKAFTECCVVASQLRANISHKDMQLGR
modifications: C5a anaphylatoxin
notes: C5a, ligand tested in the oocyte calcium efflux screen
B3: MIP-1β: recombinant human MIP-1β, diluted supernatant of Sf9 insect cells (clone pAT744) (protein, UniProt P13236 24-92, looked up)
C-C motif chemokine 4: APMGSDPPTACCFSYTARKLPRNFVVDYYETSSLCSQPAVVFQTKRSKQVCADPSESWVQEYVYDLELN

Legend:
[1] = target: T1, MIP-1α/RANTES receptor (Homo sapiens, UniProt P32246); test: Calcium efflux assay in Xenopus oocytes injected with MIP-1α/RANTES receptor cRNA; format: cell-based; details: for responsiveness of cRNA-injected oocytes to ligand (calcium efflux): oocytes injected with 10 ng receptor cRNA, IL-8, GRO-α, NAP-2 at 500 nM, MIP-1α/MIP-1β Sf9 supernatant 1:5, panel C ligands at 250 nM
T1 construct: I.D. No. 1; expressed in transfected cells; host or cells: Xenopus laevis oocytes microinjected with receptor cRNA
T1 sequence (P32246 1-355): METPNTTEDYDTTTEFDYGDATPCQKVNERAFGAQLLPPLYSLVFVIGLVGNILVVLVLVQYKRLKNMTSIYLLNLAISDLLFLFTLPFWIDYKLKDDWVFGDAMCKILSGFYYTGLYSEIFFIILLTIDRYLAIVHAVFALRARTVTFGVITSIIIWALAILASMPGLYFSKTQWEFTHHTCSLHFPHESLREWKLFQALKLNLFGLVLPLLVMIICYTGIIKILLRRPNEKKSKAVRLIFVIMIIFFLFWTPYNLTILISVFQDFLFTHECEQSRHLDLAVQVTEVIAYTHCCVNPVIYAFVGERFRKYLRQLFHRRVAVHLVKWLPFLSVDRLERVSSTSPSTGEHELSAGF
Description: (§1) The materials and methods used for the calcium efflux assay were as described in Murphy, et al., J. Immunol. 145:2227-2234 (1990). Adult female laboratory bred Xenopus laevis (Nasco, Fort Atkinson, Wis.) were maintained at 19° C. to 22° C. in a light-dark cycle of 12 h per phase. The frogs were anesthetized and ovarian lobes were resected and defolliculated in OR2 solution (82.5 mM NaCl, 1 mM MgCl2, 2.4 mM KCl, 5 mM HEPES, pH 7.5) containing 2 mg/ml collagenase for 2 h on a rotary shaker. Stage V-VI oocytes were transferred to ND96 solution (96 mM NaCl, 2 mM KCl, 1.8 mM CaCl2, 1 mM MgCl2, 2.4 mM sodium pyruvate, penicillin 100 U/ml, streptomycin 100 μg/ml, 5 mM HEPES, pH 7.4 to 7.5).
(§2) After 1-2 days, oocytes were microinjected with RNA samples in a total volume of 50 nl per oocyte and were then incubated in ND96 solution at 20° C. to 23° C. for 3 to 5 days. Oocytes were then incubated in 500 μl of OR2 medium containing ^45 Ca^2+ [50 μCi/ml (ICN Biomedicals, Costa Mesa, Calif.)] for 3 hours at 20° C. After ten washes with ND96 medium, individual oocytes were stimulated with ligand in wells of a 96-well tissue culture plate containing 100 μl of ND96 medium. Three 100 μl samples of the incubation medium were collected and analyzed by liquid scintillation counting: a) the final 100 μl wash (20 min) before application of ligand; b) fluid containing the stimulus, removed after a 20 min incubation with the oocyte; and c) the oocyte solubilized in SDS (1%) in medium 20 min after stimulation. Data are presented as the mean±standard error of the mean (SEM) of the percent of loaded ^45 Ca^2+ that was released by individual oocytes in response to the stimulus, or [(b-a).div.(b+c)]×100.
Ligands were all human recombinant material obtained from the following sources: MIP-1α (R and D Systems, Minneapolis, Minn.); IL-8, RANTES, and MCAF (Genzyme, Cambridge, Mass.); NAP-2 (Bachem Bioscience, Philadelphia, Pa.); GRO-α (a gift from M. P. Beckmann, S. Lyman and D. Cerretti). MIP-1α and MIP-1β used in a ligand screen was a gift of U. Siebenlist (NIAID, Bethesda, Md.) and were used as a diluted supernatant of Sf9 insect cells expressing immunoreactive recombinant human MIP-1α (from clone pAT464) or MIP-1β (from clone pAT744) that was prepared as described in Zipfel et al. J. Immunol. 142:1582-1590 (1989) and Zipfel et al. Lymph. Cyto. Res. 11:141-148 (1992). All proteins were diluted from aqueous stock solutions or culture supernatants into ND96 oocyte media (96 mM NaCl, […], pH 7.45) containing 0.1% bovine serum albumin.
Five days after injection with 10 ng of either MIP-1α/RANTES receptor cRNA (closed bars) or IL-8 receptor B cRNA (open bars), oocytes were stimulated with recombinant human IL-8, GRO-α or NAP-2 at 500 nM, or a 1:5 dilution of an Sf9 supernatant containing recombinant human MIP-1α or MIP-1β. […] Oocytes injected with 50 ng HL-60 RNA (closed circle) or 10 ng of MIP-1α/RANTES receptor cRNA (open circle) were stimulated with the indicated concentration of recombinant human MIP-1α. […] Oocytes were injected with either HL-60 RNA (open bars) or MIP-1α/RANTES receptor cRNA (closed bars) and stimulated with the indicated ligand at 250 nM. In panels A-C, the data derive from 5-8 replicate determinations per point.

[2] = tested on: IL-8 receptor B; test: Calcium efflux assay in Xenopus oocytes injected with IL-8 receptor B cRNA; format: cell-based, human; details: oocytes injected with 10 ng IL-8 receptor B cRNA; 1:5 dilution of Sf9 supernatant
Description: as §1
as §2, with “After ten washes with ND96 medium, individual oocytes were stimulated with ligand in wells of a 96-well tissue culture plate containing 100 μl of ND96 medium.” left out, “Data are presented as the mean±standard error of the mean (SEM) of the percent of loaded ^45 Ca^2+ that was released by individual oocytes in response to the stimulus, or [(b-a).div.(b+c)]×100.” left out

[3] = tested on: IL-8 receptor B; test: Radioligand binding of 125I-MIP-1α to oocytes expressing IL-8 receptor B; set-up: species or system human; details: single oocytes, 30 min on ice
[4] = target: T1, MIP-1α/RANTES receptor; test: Radioligand binding of 125I-MIP-1α to oocytes injected with MIP-1α/RANTES receptor cRNA
Description: Carrier free recombinant human MIP-1α 10 μg (Genzyme, Cambridge, Mass.) was labeled using 5 mCi Na^125 I (Amersham, Arlington Heights, Ill.) in 100 μl 0.2M sodium phosphate, pH 7.2 and 50 μl reconstituted Enzymobeads (BioRad, Richmond, AC). The reaction was started using 25 μl 1% β-D-glucose and allowed to continue for 20 minutes. Labeled sample was separated from the free iodine using a NAP-5 column (Pharmacia LKB, Piscataway, N.J.) which had been previously rinsed with 1% bovine serum albumin in 0.2M sodium phosphate, pH 7.2. Labeled material was collected from the column and analyzed on a 14% acrylamide gel. Single oocytes were incubated with ^125 I-MIP-1α for 30 min on ice in 10 μl of binding buffer (Hanks' balanced salt solution with 25 mM HEPES, 1% bovine serum albumin, pH 7.4). Unbound ligand was removed by centrifugation of the oocyte through 300 μl of F50 silicone fluid (General Electric, Waterford, N.Y.). The tubes were quickly frozen and gamma emissions from the amputated tips were counted.
Binding of ^125 I-labeled MIP-1α to oocytes injected with MIP-1α/RANTES receptor cRNA. (A) Total (closed circles) and non-specific binding (open circles) was determined by incubating oocytes injected with MIP-1α/RANTES receptor cRNA with the indicated concentration of ^125 I-labeled MIP-1α in the absence or presence of a 100 fold molar excess of unlabeled MIP-1α, respectively. […]

Row | Molecule | responsiveness of cRNA-injected oocytes to ligand (calcium efflux) [1] | also measured
1 | Nc1ncnc2c1ncn2[C@@H]1O[C@H](COP(=O)(O)OP(=O)(O)OP(=O)(O)O)[C@@H](O)[C@H]1O [ATP, reference compound] | inactive | –
2 | CCCCC[C@H](O)/C=C/[C@H]1[C@H](O)CC(=O)[C@@H]1C/C=C\CCCC(=O)O [Prostaglandin E2, reference compound] | inactive | –
3 | O=c1ccn([C@@H]2O[C@H](COP(=O)(O)OP(=O)(O)OP(=O)(O)O)[C@@H](O)[C@H]2O)c(=O)[nH]1 [UTP, reference compound] | inactive | –
4 | CSCC[C@H](NC=O)C(=O)N[C@@H](CC(C)C)C(=O)N[C@@H](Cc1ccccc1)C(=O)O [f-met-leu-phe, reference compound] | inactive | –
5 | NCCc1c[nH]cn1 [histamine, reference compound] | inactive | –
6 | CCCCCCCCCCCCCCCCOCC(COP(=O)([O-])OCC[N+](C)(C)C)OC(C)=O (stereo not shown) [platelet activating factor, reference compound] | inactive | –
7 | GROα: recombinant human GROα/melanoma growth stimulatory activity, α chemokine | not | –
8 | IL-8: recombinant human interleukin-8, α chemokine (Genzyme) | not | –
9 | MCP-1: human recombinant Monocyte Chemoattractant Protein-1 (MCAF, Genzyme) | not | –
10 | MIP-1α: recombinant human Macrophage Inflammatory Protein-1α, β chemokine (R and D Systems; or Sf9 supernatant) | acquired responsiveness | activation of IL-8 receptor B (calcium efflux) [2]: Neither MIPα nor MIP-1β activated; concentration at which the first phase of the oocyte response appeared to saturate ([1]; calcium efflux, first phase): ~100 NM; concentration at which the second phase of the oocyte response did not reach a plateau ([1]; calcium efflux, second phase): > 5 µM
11 | RANTES: recombinant human β chemokine, Regulated on Activation, Normal T Expressed and Secreted (Genzyme) | acquired responsiveness | EC50 ([1]; calcium efflux, oocytes injected with receptor cRNA): ~50 nM
12 | ^125 I-MIP-1α: carrier free recombinant human MIP-1α (Genzyme) labeled with Na125I | – | specific binding to oocytes expressing IL-8 receptor B [3]: did not bind specifically; specific binding to oocytes expressing IL-8 receptor B ([3]; listed as 125 I-labeled MIP-1α): undetectable; threshold for detection of specific binding [4]: the same as that required for stimulation of calcium efflux
13 | B1 | not | –
14 | B2 | inactive | –
15 | B3 | not | activation of IL-8 receptor B (calcium efflux) [2]: Neither MIPα nor MIP-1β activated

Source: US5652133A, “Cloning and expression of the human macrophage inflammatory protein-1.alpha . α) /rantes receptor” (The United States of America as represented by the …, priority 1993, dated 1997)
